# Data as given in patent publication US6602687B1, “DNA encoding human ciliary neurotrophic factor and method for producing the protein encoded thereby” (Regeneron Pharmaceuticals, Inc., priority 1989, dated 2003).
# B1: NGF: mouse nerve growth factor (protein, UniProt P01139 122-241, looked up)
# Beta-nerve growth factor: SSTHPVFHMGEFSVCDSVSVWVGDKTTATDIKGKEVTVLAEVNINNSVFRQYFFETKCRASNPVESGCRGIDSKHWNSYCTTTHTFVKALTTDEKQAAWRFIRIDTACVCVLSRKATRRG
# B2: recombinant human CNTF: human ciliary neurotrophic factor expressed in E. coli (protein, UniProt P26441 1-200, looked up)
# Ciliary neurotrophic factor: MAFTEHSPLTPHRRDLCSRSIWLARKIRSDLTALTESYVKHQGLNKNINLDSADGMPVASTDQWSELTEAERLQENLQAYRTFHVLLARLLEDQQVHFTPTEGDFHQAIHTLLLQVAAFAYQIEELMILLEYKIPRNEADGMPINVGDGGLFEKKLWGLKVLQELSQWTVRSIHDLRFISSHQTGIPARGSHYIANNKKM
# How the values were obtained:
# [1] = tested on: Mediodorsal (MD) spinal cord neurons; assay: E14 rat mediodorsal spinal cord neuron cultures in defined medium; assay type: cell-based; details: CNTF 2 μl/ml (recombinant rat, E. coli extract), NGF 50 ng/ml at plating; day 7; Bradford
# Description: (§1) Sprague-Dawley rats (HSD) were used for all experiments. Pregnant rats were sacrificed by carbon dioxide asphyxiation, and the embryos were rapidly removed and placed in ice-cold Puck's saline G for further dissection.
# (§2) Spinal cords were removed aseptically from rat embryos on the 14th day of gestation. The spinal cord was severed caudal to the bulb, freed of sensory ganglia and meninges. The cord was then subdivided into ventral and mediodorsal segments for separate cultures. The cord tissues were minced into small pieces and mechanically dissociated by trituration through a Pasteur pipet in defined culture medium consisting of 50% basal medium Eagle (BME; Gibco) and 50% Ham's nutrient mixture F12 (Gibco) supplemented with glucose (33 mM), glutamine (2 mM, NaHCO3 (15 mM), HEPES (10 mM), insulin (25 μg/ml), transferrin (100 μg/ml) putrescine (60 μM), progesterone (20 nM), Na selenite (30 nM), penicillin G (0.5 μg/ml), streptomycin (0.5 μg/ml), and bovine serum albumin (2.5 μg/ml). Trituration was repeated twice and the supernatants were pooled and filtered through a nylon (Nitex, Tetko) filter (40 μm). Total cell number yielded was determined by hemocytometer counting in the presence of trypan blue. Dissociated ventral cells were then plated at a density of 0.5 million cells/35 mm dish coated with poly-D-lysine (10 μg/ml). Dissociated mediodorsal cells were plated at a density of 1.5 million/35 mm dish coated with poly-D-lysine (10 μg/ml), poly-L-ornithine (10 μg/ml), or poly-L-ornithine with laminin (5 μg/ml). Treatments to these cultures were added at the time of plating. Cultures were maintained at 37° C. in a 95% air/5% CO2 atmosphere at nearly 100% relative humidity. Culture medium was changed every three to four days.
# [2] = tested on: Ventral spinal cord neurons; assay: E14 rat ventral spinal cord neuron cultures in defined medium; assay type: cell-based; details: CNTF 2 μl/ml, NGF 50 ng/ml at plating; day 7
# Description: as §1, §2
# [3] = tested on: Ventral spinal cord neurons; assay: Neurofilament (NF) assay in ventral spinal cord neuron cultures; assay type: cell-based, rat; details: CNTF 10 ng/ml, NGF 50 ng/ml at plating; day 7
# Experimental: (§3) Sprague-Dawley rats (HSD or Zivic-Miller) were used for all experiments. Pregnant rats (E14) were sacrificed as described in 10.1.1.
# Spinal cords were removed aseptically from rat embryos as described in 10.1.2. The cord tissues were minced into small pieces and incubated in 0.1% trypsin (GIBCO) and 0.01% deoxyribonuclease type 1 (Sigma) at 37° C. for 20 minutes. Trypsin solution was then removed, rinsed and replaced with medium consisting of 45% Eagle's minimum essential medium (MEM), 45% Ham's nutrient mixture F12 (F12), 5% fetal calf serum (GIBCO), 5% horse serum (GIBCO) glutamine (2 mM), penicillin G (0.5 U/ml), and streptomycin (0.5 ug/ml). […] Total cell number yielded was determined by hemocytometer counting in the presence of trypan blue. […]
# After fixation of the cells in 4% paraformaldehyde at 4° C. for 2 hours, the cultures were then permeabilized and blocked according to the procedures described in Doherty et al. (1984, J. Neurochem. 42:1116-1122). Neurofilament protein was detected using a monoclonal antibody RT97 (Wood and Anderton, 1981, Biosci. Rep. 1:263-268) at a 1:1000 dilution. The reaction product was visualized using O-phenylenediamine (OPD) as a substrate and optical density was measured at 490 nm.
# [4] = tested on: AchE-containing ventral spinal cord neurons; assay: Count of AchE-containing neurons in ventral spinal cord cultures; assay type: cell-based, rat; details: CNTF 10 ng/ml at plating; 7 days
# Experimental: as §3
# Spinal cords were removed aseptically from rat embryos as described in 10.1.2. The cord tissues were minced into small pieces and incubated in 0.1% trypsin (GIBCO) and 0.01% deoxyribonuclease type 1 (Sigma) at 37° C. for 20 minutes. Trypsin solution was then removed, rinsed and replaced with medium consisting of 45% Eagle's minimum essential medium (MEM), 45% Ham's nutrient mixture F12 (F12), 5% fetal calf serum (GIBCO), 5% horse serum (GIBCO) glutamine (2 mM), penicillin G (0.5 U/ml), and streptomycin (0.5 ug/ml). This was then mechanically dissociated twice by gentle trituration through a Pasteur pipet in the same medium, and the supernatants were pooled and filtered through a nylon filter (Nitex, Tetko; 40 um). Total cell number yielded was determined by hemocytometer counting in the presence of trypan blue. Dissociated ventral cells were then plated at a density of approximately 50,000 cells/cm^2 on dishes coated with poly-L-ornithine (10 ug/ml) and laminin (5 ug/ml). Treatments were given on the day of plating, except for delayed addition experiments in which treatments were given on days 2 or 6. Cultures were maintained at 37° C. in 95% air/5% CO2 atmosphere at nearly 100% relative humidity. Culture medium was changed every 3 to 4 days. […]
# [5] = tested on: Ventral spinal cord neurons; assay: Choline acetyltransferase (CAT) activity in ventral spinal cord cultures; assay type: cell-based, rat; details: CNTF 10 ng/ml, NGF 50 ng/ml, FGF 50 ng/ml at plating; after 7 days in culture
# Experimental: as §3
# Spinal cords were removed aseptically from rat embryos as described in 10.1.2. The cord tissues were minced into small pieces and incubated in 0.1% trypsin (GIBCO) and 0.01% deoxyribonuclease type 1 (Sigma) at 37° C. for 20 minutes. Trypsin solution was then removed, rinsed and replaced with medium consisting of 45% Eagle's minimum essential medium (MEM), 45% Ham's nutrient mixture F12 (F12), 5% fetal calf serum (GIBCO), 5% horse serum (GIBCO) glutamine (2 mM), penicillin G (0.5 U/ml), and streptomycin (0.5 ug/ml). This was then mechanically dissociated twice by gentle trituration through a Pasteur pipet in the same medium, and the supernatants were pooled and filtered through a nylon filter (Nitex, Tetko; 40 um). Total cell number yielded was determined by hemocytometer counting in the presence of trypan blue. Dissociated ventral cells were then plated at a density of approximately 50,000 cells/cm^2 on dishes coated with poly-L-ornithine (10 ug/ml) and laminin (5 ug/ml). Treatments were given on the day of plating, except for delayed addition experiments in which treatments were given on days 2 or 6. Cultures were maintained at 37° C. in 95% air/5% CO2 atmosphere at nearly 100% relative humidity. Culture medium was changed every 3 to 4 days. A mitotic inhibitor, cytosine arabinoside (Ara C; 0.5 uM), was added on day 2 to reduce the number of nonneuronal cells. On day 7, cells were harvested for measurements of choline acetyltransferase (CAT; Fonnum, 1975 J. Neurochem. 24:407-409) and protein (Bradford, 1976, Annal. Biochem. 72:248-254) levels or fixed in 4% paraformaldehyde for NF assay (Doherty et al., 1984, J. Neurochem. 42:1116-1122) and immunocytochemistry. Some cultures were grown in defined medium consisting of 50% F12 and 50% MEM, glutamine (2 mM), insulin (5 ug/ml), transferrin (100 ug/ml), progesterone (20 nM), putrescine (10 uM), and sodium selenite (30 nM) (Bottenstein and Sato, 1979, PNAS 76:514-517). In these cultures sera-containing medium was replaced with defined medium on day 1.
# Cultures were harvested by lysing the cells in a 20 mM Tris-HCl (pH 8.6) solution containing 0.1% Triton X-100. Two microliters of the cell lysate was removed and assayed for CAT activity according to the micro-Fonnum procedure (Fonnum, 1975, J. Neurochem. 24:407-409). The final substrate composition consisted of 0.2 mM [1-^14C] Acetyl-CoA (NEN, 54.4 mCi/mmol), 300 mM NaCl, 8 mM choline bromide, 20 mM EDTA, and 0.1 mM neostigmine in 50 mM NaH2PO4 (pH 7.4) buffer. At these enzyme and substrate concentrations, the enzymatic reaction was linear for 90-120 minutes. The specificity of the induction for CAT was tested by the addition of a specific inhibitor of CAT activity, N-hydroxyethyl-4-(1-napthylvinyl) pyridium (HNP), during the assay (White and Cavallito, 1970, J. Neurochem. 17:1579-1589).
# [6] = tested on: GABAergic neurons (hippocampal cultures); assay: Effect of other neurotrophic factors on GABAergic hippocampal neurons in culture; assay type: cell-based, rat
# Experimental: Hippocampi were dissected from E18-19 rat embryos of Sprague-Dawley rats, and collected in F10 medium. The tissues were minced, rinsed twice with F10 medium (Gibco) and trypsinized with 0.25% trypsin (Gibco) for 20 minutes at 37° C. Trypsin was inactivated by the addition of a serum-containing medium composed of minimal essential medium (MEM) supplemented with fetal calf serum (FCS, 10%), glutamine (2 mM), penicillin (25 U/ml) and streptomycin (25 ug/ml). Dissociated cells obtained by gentle trituration were collected and centrifuged at low speed (500 rpm) for 30 seconds. The centrifugation was repeated twice, and the cell pellets were then resuspended in serum-containing medium. The cells were then plated onto 6 mm wells or 35 mm dishes that were coated with polyornithine (10 ug/ml) and laminin (10 ug/ml). In most of the experiments, the cells were plated at a low density of approximately 71,000 cells/cm^2. Five to six hours following the plating of cells, medium was changed to a serum-free medium containing 1% N3 and penicillin-streptomycin (25 units/ml and 25 ug/ml, respectively), at which time CNTF was added. Medium was changed every three to four days, with re-addition of the factor. […]
# [7] = tested on: E8 dorsal root ganglion neurons; assay: Survival and neurite outgrowth of dorsal root ganglion neurons / DRG assay with E. coli protein extracts; assay type: cell-based; details: protein extracts of E. coli carrying human CNTF sequence in pCP93
# Experimental: In addition, protein extracts were prepared from the same cells lysed by treatment with lysozyme followed by three cycles of freezing and thawing. […] No such activity could be detected in control extracts from the same host cells carrying the plasmid vector without the rCNTF gene.
# Human CNTF sequence, engineered to lack intron sequences, has been inserted into the pCP93 vector and used to transform competent E. coli.
# [8] = tested on: E8 chick ciliary ganglion neurons; assay: Survival of dissociated E8 chick ciliary ganglion neurons; assay type: cell-based; details: increasing amounts of pure protein
# Description: Ciliary neurotrophic factor activity may be evaluated using any CNTF-sensitive in vivo or in vitro system known in the art. For example, and not by way of limitation, in vitro systems have been developed which measure CNTF activity by quantitating 24-hour survival of embryonic (E8) chick ciliary ganglion (CG) neurons in monolayer cultures.
# For example, ciliary ganglia may be collected from E8 chick embryos, dissociated (yielding approximately 20,000 cells per ganglion) and then diluted in HEBM medium containing 20 percent horse serum as described in Varon et al. (1979, Brain Res. 173:29-45). About fifty microliters of cell suspension containing neurons (2,000 cells) may then be seeded into microliter dishes and putative CNTF activity may be added. Culture plates may then be maintained at 37° C. in 5% CO2 for 24 hours, after which the cultures may be fixed by the addition of 200 μl 2 per cent glutaraldehyde in HEBM medium, and the number of surviving neurons may be determined visually by direct count under phase contrast microscopy.
# Chick embryo ciliary ganglion cultures were created and maintained according to the method set forth in (Hughes et al., 1988, Nature 335 : 70-73).
# (§4) Biological activity of recombinant CNTF was assayed on explants of chick embryo dorsal root ganglia (DRG) and dissociated cultures of ciliary ganglion (CG) neurons as described in Lindsay and Rohrer (1985, Devel. Biol 112:30-48). Briefly, DRG were dissected from chick embryos of 10 days incubation (E10) and 5-6 ganglia were explanted in 1 ml of a collagen gel matrix in 35 mm tissue culture dishes. After the gel had set, 1 ml of tissue culture growth medium F14 (Imperial Labs., U.K.) supplemented with 5% heat-inactivated horse serum (GIBCO) was added before adding human CNTF (1-20 l) to a final concentration of 100 pg to 100 ng/ml. CG were dissected from E8 chick embryos and incubated for 30 min in 0.25% trypsin (Worthington) in calcium- and magnesium-free phosphate buffered saline. The ganglia were then washed three times in F14 medium containing 5% horse serum before being dissociated to a single cell suspension by trituration through the bore of a Pasteur pipette. Enrichment for CG neurons was achieved by plating the cell suspension for 3.5 hr in a 60 mm dish, during which non-neuronal cells (fibroblasts and Schwann cells) attached firmly to the plastic while phase-bright neurons remained in suspension. The purified neurons were plated on polyornithine-laminin-coated 35 mm culture dishes at 8,000-10,000 neurons/dish. In explant cultures CNTF activity was determined by assessing the extent of fiber outgrowth in treated cultures compared to controls. Fiber outgrowth was scored on a scale of 0 to 5+, by comparing cultures to photographs of a dose-response of explanted DRG and NGF. In dissociated CG neuron cultures, CNTF activity was determined by counting at 48 hr the percentage of process-bearing neurons in control and CNTF-treated cultures. In all cases results were derived from triplicate cultures.
# [9] = tested on: E10 chick DRG; assay: Fiber outgrowth from explants of E10 chick embryo dorsal root ganglia; assay type: cell-based
# Experimental: as §4, with “The ganglia were then washed three times in F14 medium containing 5% horse serum before being dissociated to a single cell suspension by trituration through the bore of a Pasteur pipette. Enrichment for CG neurons was achieved by plating the cell suspension for 3.5 hr in a 60 mm dish, during which non-neuronal cells (fibroblasts and Schwann cells) attached firmly to the plastic while phase-bright neurons remained in suspension. The purified neurons were plated on polyornithine-laminin-coated 35 mm culture dishes at 8,000-10,000 neurons/dish.” left out, “In all cases results were derived from triplicate cultures.” left out
Molecule,μg protein dish [1] [μg protein dish],CAT Activity [2] [CPM/dish],Protein [2] [μg/dish],increase in NF content versus untreated controls [3],increase in AchE-positive neurons versus untreated controls [4],increase in CAT activity [5],effect on / survival of GABAergic neurons [6],CNTF activity in DRG assay [7],activity towards chick ciliary neurons compared with rat CNTF [8],"maximum fiber outgrowth at saturating levels, relative to saturating levels of NGF [9]"
B1,20,621.25 ± 33.59,38,did not produced any significant effect,small effect,no effect,not able to detect any effect,,,
B2,,,,,,,,CNTF activity,as active as rat CNTF,50-75%
